Changes are numbered by the printed parent chain.
How the values were obtained:
human CD3 [1] = target: T1, human CD3 (human, UniProt P07766 23-207); assay: cell binding, human PBMC
T1 construct: whole, on cells; also called CD3 on human T-cells

human CD3 [2] = target: T1, human CD3; assay: cell binding, human T-cells; parameters: Bmax: unit not given here
cyno CD3 [3] = target: T2, cyno CD3 (cyno (cynomolgus monkey), UniProt Q95LI5 22-198); assay: cell binding, cynomolgus T-cells
T2 construct: whole, on cells; also called CD3 on Cynomolgus T-cells

[4] = target: Folate receptor-alpha (FOLR1) (human) (UniProt P15328); assay: summary table; FRα affinity over CD3 affinity
[5] = target: Folate receptor-alpha (FOLR1) (human) (UniProt P15328); assay: summary table; cell binding through the folate moiety
human CD3 [6] = target: T1, human CD3; assay: cell binding, human CD3, 50 nM SFA present
human CD3 [7] = target: T1, human CD3; assay: summary table; cell binding EC50, human PBMC
[8] = target: Folate receptor-alpha (FOLR1) (human) (UniProt P15328); assay: cell binding, FOLRα-expressing KB cells; through the folate moiety
[9] = target: Folate receptor-alpha (FOLR1) (human) (UniProt P15328); assay: cell binding, SKOV-3 cells with 50 nM SFA; through the folate moiety
cyno CD3 [10] = target: T2, cyno CD3; assay: cell binding, activated cyno PBMC
human CD3 [11] = target: T1, human CD3; assay: cell binding, activated human PBMC
cyno CD3 [12] = target: T2, cyno CD3; assay: cell binding, cyno CD3 (activated cyno PBMC); cyno CD3 (second number of the cell)
Protocol: (§1) Testing for CD3 binding with activated human and cyno PBMC: To distinguish between the humanized anti-CD3 antibodies generated, binding to human CD3 was tested using activated human PBMCs (n=2). The activation of PBMCs and subsequent fluorescence-based CD3 binding assays were followed as described previously (see for example, Angew Chem Int Ed Engl, 52(46):12101-12104, 2013). […] The binding of the remaining 6 humanized antibodies to both human and cyno CD3 using activated human and cyno PBMCs, respectively, was titrated. […] The six (6) humanized anti-CD3 antibodies were obtained as follows: Fab1, Fab2 and Fab3 wildtype were generated by combination of LC ((vL1.2+CL); (SEQ.ID. NO:7)) and HC ((vH1.2+CH1); (SEQ.ID. NO:1)), ((vH1.1+CH1); (SEQ.ID. NO:2)) and ((vH1.0+CH1); (SEQ.ID. NO:3)) respectively. Fab4, Fab 5 and Fab6 wildtype were generated by combination of LC ((vL1.1+CL); (SEQ.ID. NO:8)) and HC ((vH1.2+CH1); (SEQ.ID. NO:1)), ((vH1.1+CH1); (SEQ.ID. NO:2)) and ((vH1.0+CH1); (SEQ.ID. NO:3)) respectively.
(§2) Binding of Folate-conjugated Fabs to human and cyno CD3: Binding of E. coli produced and Folate-conjugated low-affinity variants of humanized anti-CD3 Fabs was performed as described in the above Examples.

human CD3 [13] = target: T1, human CD3; assay: cell binding, human CD3 (activated human PBMC); human CD3 (first number of the cell)
Protocol: as §1, §2

cyno CD3 [14] = target: T2, cyno CD3; assay: cell binding, activated cyno PBMC; E. coli protein
human CD3 [15] = target: T1, human CD3; assay: cell binding, activated human PBMC; E. coli protein
cyno CD3 [16] = target: T2, cyno CD3; assay: flow cytometry (MFI), 11-point titration on cyno CD3 (activated cyno PBMC), HEK293 culture supernatant
Protocol: (§3) Screening for human and cyno CD3 binding: HEK293 culture supernatants were directly used to test for binding to human CD3 in the screening phase. In Round 1 experiment, initially 35 clones were tested for binding to human CD3 at three different protein concentrations, and 13 were selected for detailed binding assays to both human and cyno CD3. An 11-point binding titration curve was generated to both human (FIG. 4A) and cyno CD3 (FIG. 4B) for each clone. […] Similarly, 43 clones were screened in Round 2 experiment. After two-stage screening as described above for Round 1, 11 low-affinity variants were obtained, of which 4 are represented as shown in FIGS. 5A-5B

human CD3 [17] = target: T1, human CD3; assay: flow cytometry (MFI), 11-point titration on human CD3 (activated human PBMC), HEK293 culture supernatant
Protocol: as §3

human CD3 [18] = target: T1, human CD3; assay: flow cytometry (MFI) on activated human PBMC, Fab in HEK293 culture medium, concentration not shown
Protocol: as §1

Folate receptor-alpha (FOLR1) (human), sequence (P15328 25-234): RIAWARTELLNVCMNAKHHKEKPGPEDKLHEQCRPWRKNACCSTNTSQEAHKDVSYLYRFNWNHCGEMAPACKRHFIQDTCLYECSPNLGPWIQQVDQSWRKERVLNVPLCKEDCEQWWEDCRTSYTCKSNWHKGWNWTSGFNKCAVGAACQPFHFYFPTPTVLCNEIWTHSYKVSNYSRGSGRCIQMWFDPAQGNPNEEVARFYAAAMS
T1 sequence (P07766 23-207): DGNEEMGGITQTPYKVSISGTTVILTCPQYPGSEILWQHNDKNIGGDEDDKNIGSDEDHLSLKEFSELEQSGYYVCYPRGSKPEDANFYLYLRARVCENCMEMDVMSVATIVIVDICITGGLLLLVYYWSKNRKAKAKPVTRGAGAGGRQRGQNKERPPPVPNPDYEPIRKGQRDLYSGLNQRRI
T2 sequence (Q95LI5 22-198): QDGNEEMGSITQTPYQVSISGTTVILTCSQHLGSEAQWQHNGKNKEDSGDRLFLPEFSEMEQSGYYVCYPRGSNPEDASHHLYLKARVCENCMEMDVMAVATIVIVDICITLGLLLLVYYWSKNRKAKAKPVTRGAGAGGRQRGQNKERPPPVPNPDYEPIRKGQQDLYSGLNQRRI

B1: Fab1-HK129-LL157-BiFolate (Fab, V domains shown)
VH: EVQLVESGGGLVQPGGSLRLSCAASGFTFNTYAMNWVRQAPGKGLEWVARIRSKYNNYATYYADSVKDRFTISRDDSKNILYLQMNSLKTEDTAVYYCVRHGNFGNSYVSWFAYWGQGTLVTVSS
VL: QAVVTQEPSLTVSPGGTVTLTCRSSTGAVTTSNYANWVQQKPGQAPRGLIGGTNKRAPGTPARFSGSLLGGKAALTLSGAQPEDEAEYYCALWYSNLWVFGGGTKLTVLG
modifications: pAF at LL157 (Kabat) conjugated to folate (oxime); pAF at HK129 (Kabat) conjugated to folate (oxime)
notes: From E. coli; carries two folates
- EC50 (human CD3 [1]): 1.93 nM
- Fold increase binding (vs Fab1-HK129-Folate) (human CD3 [1]): 1.3 fold
- Bmax (human CD3 [2]): 24600
- Kd (human CD3 [2]): 0.669 nM
- Bmax (cyno CD3 [3]): 19600
- Kd (cyno CD3 [3]): 1 nM
- Affinity ratio (FRα:CD3) [4]: 10
- FRα binding affinity [5]: 19.8 nM
- EC50 (human CD3 [6]): 2.37 nM
- CD3 binding affinity (human CD3 [7]): 1.93 nM
- Bmax [8]: 74400
- Kd [8]: 0.85 nM
- EC50 [9]: 19.8 nM
- Fold increase binding (vs Fab1-HK129-Folate) [9]: 2.2 fold

B2: Fab1-HK129-LK172-BiFolate (Fab, V domains shown)
VH: B1 VH
VL: B1 VL
modifications: pAF at LK172 (Kabat) conjugated to folate (oxime); pAF at HK129 (Kabat) conjugated to folate (oxime)
notes: as for B1
- EC50 (human CD3 [1]): 2.85 nM
- Fold increase binding (vs Fab1-HK129-Folate) (human CD3 [1]): 0.86 fold
- Affinity ratio (FRα:CD3) [4]: 3.5
- FRα binding affinity [5]: 10 nM
- CD3 binding affinity (human CD3 [7]): 2.85 nM
- EC50 [9]: 10 nM
- Fold increase binding (vs Fab1-HK129-Folate) [9]: 4.4 fold

B3: Fab1-HK129-5KPEG-Folate (Fab, V domains shown)
VH: B1 VH
VL: B1 VL
modifications: pAF at HK129 (Kabat) conjugated to a bifunctional linker carrying folate and a linear 5K PEG (oxime)
notes: From E. coli; also called Fab1-5KPEG-Folate
- Bmax (human CD3 [2]): 23400
- Kd (human CD3 [2]): 2.34 nM
- Bmax (cyno CD3 [3]): 19900
- Kd (cyno CD3 [3]): 3.31 nM
- EC50 (cyno CD3 [10]): 2.46 nM
- Fold reduction in binding (vs Fab1-HK129-Folate) (cyno CD3 [10]): 1.7 fold
- Affinity ratio (FRα:CD3) [4]: 26
- EC50 (human CD3 [11]): 5 nM
- Fold reduction in binding (vs Fab1-HK129-Folate) (human CD3 [11]): 1.9 fold
- FRα binding affinity [5]: 129 nM
- EC50 (human CD3 [6]): 5.27 nM
- CD3 binding affinity (human CD3 [7]): 5 nM
- Bmax [8]: 134000
- Kd [8]: 3.69 nM

B4: Fab1-HK129-20KPEG-Folate (Fab, V domains shown)
VH: B1 VH
VL: B1 VL
modifications: pAF at HK129 (Kabat) conjugated to a bifunctional linker carrying folate and a linear 20K PEG (oxime)
notes: From E. coli
- EC50 (cyno CD3 [10]): 11.8 nM
- Fold reduction in binding (vs Fab1-HK129-Folate) (cyno CD3 [10]): 8.4 fold
- Affinity ratio (FRα:CD3) [4]: 26
- EC50 (human CD3 [11]): 12 nM
- Fold reduction in binding (vs Fab1-HK129-Folate) (human CD3 [11]): 4.3 fold
- FRα binding affinity [5]: 310 nM
- CD3 binding affinity (human CD3 [7]): 12 nM

B5: Fab8-HK129-Folate (Fab, V domains shown)
VH: B1 VH with A49G
VL: B1 VL with V38F, T60V
modifications: pAF at HK129 (Kabat) conjugated to folate (oxime)
notes: also called Fab8 (E. coli, folate-conjugated)
- EC50 (cyno CD3 [12]): 130 nM
- EC50 (human CD3 [13]): 78.3 nM

B6: Fab1-HK129-pAF (Fab, V domains shown)
VH: B1 VH
VL: B1 VL
modifications: para-acetyl-phenylalanine (pAF) at HK129 (Kabat)
notes: From E. coli; carries no folate and no PEG; also called Fab1-HK129-pAF1; anti-CD3 Fab1-HK129-pAF control
- Bmax (human CD3 [2]): 32000
- Kd (human CD3 [2]): 1.59 nM
- Bmax (cyno CD3 [3]): 26600
- Kd (cyno CD3 [3]): 2.67 nM
- EC50 (human CD3 [6]): 1.92 nM
- EC50 (cyno CD3 [14]): 1.15 nM
- EC50 (human CD3 [15]): 1.14 nM

B7: Fab1-HS115-pAF1 (Fab, V domains shown)
VH: B1 VH
VL: B1 VL
modifications: para-acetyl-phenylalanine (pAF) at HS115 (Kabat)
notes: From E. coli; also called Fab1 HS115pAF, unconjugated
- EC50 (cyno CD3 [14]): 1.76 nM
- EC50 (human CD3 [15]): 1.26 nM

B8: Fab7 (vH2.3 / vL2.4), wild type from HEK293 (Fab, V domains shown)
VH: B1 VH with V99A
VL: B1 VL with G59W, T60V
notes: HEK293 supernatant
- EC50 (read off the curve) (cyno CD3 [16]): ~2 nM
- EC50 (read off the curve) (human CD3 [17]): ~2 nM

B9: Fab1-HK129-LL157-pAF (Fab, V domains shown)
VH: B1 VH
VL: B1 VL
modifications: pAF at LL157 (Kabat); pAF at HK129 (Kabat)
notes: From E. coli; double pAF variant, unconjugated; also called Fab1-HK129pAF-LL157pAF
- Bmax (human CD3 [2]): 27900
- Kd (human CD3 [2]): 0.604 nM
- Bmax (cyno CD3 [3]): 23400
- Kd (cyno CD3 [3]): 0.955 nM

B10: Fab1-HA114-Folate (Fab, V domains shown)
VH: B1 VH
VL: B1 VL
modifications: pAF at HA114 (Kabat) conjugated to folate (oxime)
notes: From E. coli; Fab-folate conjugate
- EC50 (cyno CD3 [14]): 1.37 nM
- EC50 (human CD3 [15]): 1.27 nM

B11: Fab10-HK129-Folate (Fab, V domains shown)
VH: B1 VH with N30S
VL: B1 VL with V38F, T60V
modifications: pAF at HK129 (Kabat) conjugated to folate (oxime)
notes: also called Fab10 (E. coli, folate-conjugated)
- EC50 (cyno CD3 [12]): 99.5 nM
- EC50 (human CD3 [13]): 83.6 nM

B12: Fab1-HA114-pAF1 (Fab, V domains shown)
VH: B1 VH
VL: B1 VL
modifications: para-acetyl-phenylalanine (pAF) at HA114 (Kabat)
notes: From E. coli; also called Fab1 HA114pAF, unconjugated
- EC50 (cyno CD3 [14]): 1.33 nM
- EC50 (human CD3 [15]): 1.35 nM

B13: humanized anti-CD3 Fab vH1.1 + vL1.0 (Fab, V domains shown)
VH: B1 VH with I80S
VL: B1 VL with V38F, G48T, G51Y, G59W
notes: it has no Fab number; HEK293 supernatant; also called antibody with vL1.0 light chain and vH1.1
- binding result (human CD3 [18]): no binding

B14: Fab9 (vH1.0 / vL2.1), wild type from HEK293 (Fab, V domains shown)
VH: B1 VH with A49G, I80S
VL: B1 VL with V38F, T60V
notes: HEK293 supernatant
- EC50 (read off the curve) (human CD3 [17]): ~10 nM

B15: Fab9-HK129-Folate (Fab, V domains shown)
VH: B1 VH with A49G, I80S
VL: B1 VL with V38F, T60V
modifications: pAF at HK129 (Kabat) conjugated to folate (oxime)
notes: also called Fab9 (E. coli, folate-conjugated)
- EC50 (cyno CD3 [12]): 93.1 nM
- EC50 (human CD3 [13]): 69.1 nM

B16: Fab7-HK129-Folate (Fab, V domains shown)
VH: B1 VH with V99A
VL: B1 VL with G59W, T60V
modifications: pAF at HK129 (Kabat) conjugated to folate (oxime)
notes: also called Fab7 (E. coli, folate-conjugated)
- EC50 (cyno CD3 [12]): 20.2 nM
- EC50 (human CD3 [13]): 23.4 nM

B17: humanized anti-CD3 Fab vH1.0 + vL1.0 (Fab, V domains shown)
VH: B1 VH with A49G, I80S
VL: B1 VL with V38F, G48T, G51Y, G59W
notes: it has no Fab number; HEK293 supernatant; also called antibody with vL1.0 light chain and vH1.0
- binding result (human CD3 [18]): no binding

B18: Fab1-HS115-Folate (Fab, V domains shown)
VH: B1 VH
VL: B1 VL
modifications: pAF at HS115 (Kabat) conjugated to folate (oxime)
notes: as for B10
- EC50 (cyno CD3 [14]): 1.37 nM
- EC50 (human CD3 [15]): 1.41 nM

B19: Fab8 (vH2.2 / vL2.1), wild type from HEK293 (Fab, V domains shown)
VH: B1 VH with A49G
VL: B1 VL with V38F, T60V
notes: HEK293 supernatant
- EC50 (read off the curve) (cyno CD3 [16]): ~6 nM
